The target of test [1] is T1, recombinant soluble human IL-6R (human, UniProt P08887 20-365).
T1 construct: also called sIL-6R; shIL-6R
T1 sequence: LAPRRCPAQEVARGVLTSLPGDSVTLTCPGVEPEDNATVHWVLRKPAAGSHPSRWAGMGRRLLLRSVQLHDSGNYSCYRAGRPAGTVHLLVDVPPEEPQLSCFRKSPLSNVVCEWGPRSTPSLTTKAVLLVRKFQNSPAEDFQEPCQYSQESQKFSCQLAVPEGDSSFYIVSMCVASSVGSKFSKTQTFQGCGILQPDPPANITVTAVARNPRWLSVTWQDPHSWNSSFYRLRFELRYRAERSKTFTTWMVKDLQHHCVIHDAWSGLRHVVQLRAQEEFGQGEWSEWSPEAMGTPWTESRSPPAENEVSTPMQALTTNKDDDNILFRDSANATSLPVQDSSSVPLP
As to the kind of experiment: standard gp130 ELISA (competition). (In general: In an ELISA, binding on a coated surface is turned into a signal by an enzyme label.)

The target in test [2] is T2, membrane-bound human IL-6R on TF-1 cells (human, UniProt P08887 20-468).
T2 sequence: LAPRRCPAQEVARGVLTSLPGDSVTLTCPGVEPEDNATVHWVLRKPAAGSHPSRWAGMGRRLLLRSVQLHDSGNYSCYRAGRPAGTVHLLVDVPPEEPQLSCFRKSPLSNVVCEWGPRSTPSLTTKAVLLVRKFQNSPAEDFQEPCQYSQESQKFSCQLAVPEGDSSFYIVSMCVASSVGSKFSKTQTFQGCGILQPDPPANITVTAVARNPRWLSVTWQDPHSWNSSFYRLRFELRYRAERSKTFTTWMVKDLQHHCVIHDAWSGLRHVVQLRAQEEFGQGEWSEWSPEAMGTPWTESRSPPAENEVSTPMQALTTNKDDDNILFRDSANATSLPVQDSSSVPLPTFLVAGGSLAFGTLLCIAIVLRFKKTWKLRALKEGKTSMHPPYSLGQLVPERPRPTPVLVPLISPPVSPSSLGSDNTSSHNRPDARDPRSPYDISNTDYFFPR
The test can be described thus: cell-based or functional assay.

In test [3] the target is T1, recombinant soluble human IL-6R. As to the kind of experiment: gp130 ELISA (competition), second assay; reference 7F6. How it is done: (§1) Briefly, Maxisorp 96-well plates were coated overnight with 50 μl/well 0.5 μg/ml gp130 then blocked. ICVDs were serially diluted and mixed 1:1 with 100 ng/ml recombinant human IL-6 then 1:1 with 40 ng/ml recombinant human sIL-6R, and incubated for 1 hour to allow binding before adding to the gp130-coated plates. Bound IL-6R was detected with 50 μl/well 0.250 μg/ml BAF227 and then 50 μl/well 1/1000 diluted Extravidin-HRP and the level of neutralisation by the ICVD of IL-6R binding to IL-6/gp130 was determined.
(§2) A separate assay was performed on 21E6 and 7F6 using the same protocol as above with the exception that the ICVD/IL-6R/IL-6 where only incubated with shaking for 10 min before being added to the assay plates.

For test [4] the target is unchanged. The test can be described thus: gp130 ELISA (competition), second assay, 10 min pre-incubation; 20 ng/mL IL6R, 100 ng/mL IL6. How it is done: as §1, §2

B1: ID-75V (VHH)
VHH: DVQLVESGGGLVQAGGSTRLTCKASGSISNINSINVMAWYRQAPGKQRELVAIIGKGGGTNYADFVKGRFTISRDAAKNTVNLQMNSLKPEDTAVYYCYADYEDHDSPFNASWGQGTQVTVSS
notes: also called 5G9 + E1D, F29S, R105H
Turning to B1, in test [1], the binding result is “binds”.

B2: 21E6 (VHH)
VHH: EVQLVESGGGLVLAGGSTRLTCLASGSISSINVIGWYRQAPGKQRELVAMIGRGEGANYGDFAKGRFTISRDNSKNTVYLQMNSLKPEDTAVYYCYADYEDRDSPLNGSWGQGTQVTVSS
notes: Family-expansion clone related to 7F6 (Q13L and F106L); Expressed from a phagemid vector and purified
What is called IC50 is the concentration that inhibits the measured activity by half. As to B2, the “IC50 in TF1 assay (separate assay, raised background)” value in test [2] was found to be 11 nM. In addition, the “fold less potent than 7F6” value in test [3] was roughly 2 fold. For the same molecule, the IC50 in test [4] came to 0.3 nM.

(Values after patent US20220380475A1 (SORRISO PHARMACEUTICALS, published 2022).)
